Laboratory results: US20120009181A1

Target: human folate receptor 1 (FOLR1) (human)

MorAb-003 (Farletuzumab) (antibody)
EC50 of ADCC activity on IGROV-1 cells: 0.16 ng/mL
